Five molecules from US20240252641A1 (TCR2 THERAPEUTICS, published 2024) can be followed below.

For test [1], the target named is T1, CD70 on cells (CHO-CD70, JVM-3, U266, Raji, THP-1, T cells) (human, UniProt P32970 1-193).
T1 construct: whole, on cells; also called cell-surface CD70
T1 sequence (looked up): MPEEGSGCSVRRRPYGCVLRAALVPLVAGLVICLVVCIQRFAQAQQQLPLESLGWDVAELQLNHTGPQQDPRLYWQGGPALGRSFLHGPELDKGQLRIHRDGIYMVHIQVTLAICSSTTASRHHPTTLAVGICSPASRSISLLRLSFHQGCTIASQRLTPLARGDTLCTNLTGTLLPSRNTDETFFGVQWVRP
Kind of test: 1.25 µg/mL scFv on JVM-3 cells. In a few lines: (§1)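 Human scFv antibodies were raised by panning a naïve human library against the CD70 extracellular domain (aa39-193). They were tested for binding to tumour cell lines with high CD70 expression (CHO-CD70, JVM3, U266) and low CD70 expression (CHO WT, K562). Cell binding was recorded per cell line, and the detection method is not stated.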

The target of test [2] is T2, human CD70, recombinant, N-terminally biotinylated (residues 39-193) (human, UniProt P32970 39-193, N-terminal biotin).
T2 construct: range 39-193; the same entry is used there; also called biotinylated human CD70; CD70 biotin
T2 sequence (looked up): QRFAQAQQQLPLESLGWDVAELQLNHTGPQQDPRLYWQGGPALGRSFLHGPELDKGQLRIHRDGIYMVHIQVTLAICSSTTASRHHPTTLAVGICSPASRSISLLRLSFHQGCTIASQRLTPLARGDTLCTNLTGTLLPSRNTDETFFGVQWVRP
Nature of the test: SPR. In a few lines: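 The scFv antibodies are human and were isolated by panning a naïve human library on the extracellular domain of CD70 (aa39-193). Their affinity (Kd) was measured by surface plasmon resonance analysis. The binding partner was recombinant human antigen biotinylated at the N-terminus.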
On the technique in general: In SPR one partner is held on a chip, and binding of the other changes the refractive index at the surface.

Test [3] deals with T1, CD70 on cells (CHO-CD70, JVM-3, U266, …). Kind of test: 1.25 µg/mL scFv on CHO-CD70 cells. The method in brief:
as §1

The target of test [4] is T2, human CD70, recombinant, N-terminally …. Nature of the test: CD27 blocking ELISA, 3 µM scFv, strep/HRP. A general note: ELISA stands for enzyme-linked immunosorbent assay.
Test [5] concerns the target T1, CD70 on cells (CHO-CD70, JVM-3, U266, …). Nature of the test: 1.25 µg/mL scFv on U266 cells. The method in brief: as §1
Test [6] concerns the target T2, human CD70, recombinant, N-terminally …. Nature of the test: CD27 blocking ELISA, 3 µM scFv, anti-His/HRP. In a few lines:
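Plate-bound CD70 was either exposed to CD27 and His-tagged scFv added together, or pre-incubated with CD27 for 30 minutes before more CD27 and scFv were added. scFv still bound to CD70 was detected with anti-His HRP.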

B1: 30-TC1.2-I-C08-1 (scFv)
scFv: QMQLVQSGAEVKKPGASVKVSCKASGYTFTSYGISWVRQAPGQGLEWMGWINPNTGGTDYAQKFQGRVTITRDTSITTGYMELSRLRSDDTAVYYCARHYYYGMDVWGQGTTVTVSSGGSGGSGGSGGSDIQLTQSPSSLSASVGDRVTITCQASQDISNYLNWYQQKPGKAPKLLIYDASNLETGVPSRFSGSGSGTDFTFTISSLQPEDIATYYCQQYDNLPLTFGGGTKVEIK
notes: His-tagged
Consider B1, for which the cell binding in test [1] worked out at 37400; in test [3], 503000; in test [5], 17400. The Kd in test [2] amounted to 0.0673 µM. In addition, in test [4], the strep/HRP was determined as 1.5. The “anti His/HRP” value in test [6] is 1.83.

B2: 14-TC4-III-A04 (scFv)
scFv: QVQLVQSGAEVKKPGASVKVSCKASGYTFTGYYMNWVRQAPGQGLEWMAWINPNTGDTNYAQKFQGRVTMTRDTSINTAYIELSRLTSDDTAVYYCARVGDYYDRSGYYRHDAFDIWGQGTMVTVSSGGSGGSGGSGGSSSELTQDPAVSVALGQTVRITCQGDSLRSYYASWYQQKPGQAPVLVIYGKNNRPSGIPDRFSGSSSGNTASLTITGAQAEDEADYYCQAWDSSTGVFGGGTKVTVL
notes: His-tagged
With B2, the cell binding in test [1] was determined as 17000; in test [3] it was 610000; in test [5] it was 20400. In addition, the Kd in test [2] came to 0.0137 µM. The strep/HRP in test [4] stood at 0.359. Further, in test [6], the “anti His/HRP” value amounted to 2.81.

B3: 58-TC7-III-G11 (scFv)
scFv: EVQLVQSGGGVVQPGRSLRLSCAASGFTFSSYAMHWVRQAPGKGLEWVAVISYDGSNKYYADSVKGRFTISRDNSKNTLYLQMNSLRAEDTAVYYCATNSGYDSDYYYGMDVWGQGTTVTVSSGGSGGSGGSGGSQSVLTQPPSMSGAPGQRVTISCTGSSSNIGAGYDVHWYQHLPGTGPKLLIHGNTNRPSGVPDRFSGSKSGTSASLAITGLQAEDEADYYCQSYDNSLGGYVVFGGGTKVTVL
notes: His-tagged
Consider B3, for which the figures for the cell binding in test [1], in test [3] and in test [5] were 14700, 277000 and 12000, respectively. Also, the equilibrium dissociation constant (Kd) in test [2] amounted to 8.9 µM. In addition, the strep/HRP in test [4] stood at 0.503. The “anti His/HRP” value in test [6] came out at 1.97.

B4: 14-TC4-XIII-A01 (scFv)
scFv: QVQLVQSGAEVKKPGASVKVSCKASGYTFTGYYMNWVRQAPGQGLEWMAWINPNTGDTNYAQKFQGRVTMTRDTSINTAYIELSRLTSDDTAVYYCARVGDYYDRSGYYRHDAFDIWGQGTMVTVSSGGSGGSGGSGGSSSELTQDPAVSVALGQTVRITCQGDSLRSYYASWYQQKPGQAPVLVIYGKNNRPSGIPDRFSGSSSGNTASLTITGAQAMDEADYYCQAWDSSTGVVFGGGTKVTVL
notes: His-tagged
For the molecule B4, the results for the cell binding in test [1], in test [3] and in test [5] were 1290, 111000 and 953, respectively. Moreover, the Kd in test [2] amounted to 2.83 µM. In addition, the strep/HRP in test [4] amounted to 1.46. Moreover, the “anti His/HRP” value in test [6] was 1.74.

B5: 14-TC6-I-F03 (scFv)
scFv: QVQLVQSGAEVKKPGASVKVSCKASGYTFTGYYMNWVRQAPGQGLEWMAWINPNTGDTNYAQKFQGRVTMTRDTSINTAYIELSRLTSDDTAVYYCARVGDYYDRSGYYRHDAFDIWGQGTMVTVSSGGSGGSGGSGGSSSELTQDPAVSVALGQTVRITCQGDSLRSYYASWYQQKPGQAPVLVIYGKNNRPSGIPDRFSGSNSGNTATLTISGTQAMDEADYYCQAWDSSTVFGGGTKVTVL
notes: His-tagged
Take B5: the cell binding in test [1] is 1880; in test [3] it was 33400; in test [5], 1430. The Kd in test [2] was determined as 0.289 µM. The strep/HRP in test [4] is 0.954. In addition, the “anti His/HRP” value in test [6] stood at 2.47.

In general, Kd refers to the concentration at which binding is half-saturated.
